# Test results: paper PMC4333402 (Nucleic Acids Research, 2014)
# B1: Pyrococcus furiosus Cmr4 (natural protein, UniProt Q8U1S9 1-295, looked up)
# chain: MKAYLVGLYTLTPTHPGSGTELGVVDQPIQRERHTGFPVIWGQSLKGVLRSYLKLVEKVDEEKINKIFGPPTEKAHEQAGLISVGDAKILFFPVRSLKGVYAYVTSPLVLNRFKRDLELAGVKNFQTEIPELTDTAIASEEITVDNKVILEEFAILIQKDDKGILESVVKAIEQAFGNEMAEKIKGRIAIIPDDVFRDLVELSTEIVARIRINAETGTVETGGLWYEEYIPSDTLFYSLILVTPRAKDNDMALIKEVLGKINGKYLQIGGNETVGKGFVKVTLKEVTNNGGTHAK
# Target: the molecule itself
# Assay: crystal structure
protein,measurement,value
B1,binding result,binds
